Test results from paper doi:10.1101/2022.01.24.477625 (bioRxiv, 2022).

B1: CV27 IgG (antibody, V domains shown)
VH: QVQLVESGGGVVQPGRSLRLSCAASGFTFSSYAMHWVRQAPGKGLEWVALISYDGSNKYYADSVKGRFTISRDNSKNTLYLQMNSLRAEDTAVYYCARSFGGSYYYGMDVWGQGTTVTVSS
VL: QSALTQPASVSGSPGQSITISCTGTSSDVGGYNYVSWYQQHPGKAPKLMIYDVSNRPSGVSNRFSGSKSGNTASLTISGLQAEDEADYYCSSYTSSSTPYVFGTGTKVTVL
B2: CV27 FAb (Fab, V domains shown)
VH: B1 VH
VL: B1 VL

Target: SARS-CoV-2 spike protein (FL-GCN4-Avi-His, biotinylated) (SARS-CoV-2, Wuhan-Hu-1, UniProt P0DTC2, stabilised, biotin on the Avi tag)
Test: BLI

| Binder | binding result |
| --- | --- |
| B1 | binds |
| B2 | binds |
